Assay results reported in CN113999301A (JIANGSU XINTRUM PHARMACEUTICALS CO LTD, dated 2022).

Target: 新冠原始假病毒的S蛋白 (FNV-SARS-CoV-2-S) (SARS-CoV-2, UniProt P0DTC2 14-1273)
Assay: cell-based or functional assay

B1: 抗SARS-CoV-2(COVID-19)S蛋白RBD单克隆抗体B15-5-B3 (antibody, V domains shown)
VH: EVKFEESGGGLVQPGGSMKLSCAASGFTFSDAWMDWVRQSPEKGLEWVAEIRNKANNHATYYAESVKGRFTISRDDSKSSVYLQMNSLRAEDTGIYYCTPYDYAYPWFWGQGTLVTVSA
VL: EIVLTQSPTTMAASPGEKITITCSASSSISSHYLHWYQQKPGFSPKLLIYRSYSLASGFPGRFSGSGSGTSFSLSIGTMEAEDVATYYCQQGSSRITPFGGGTKLEIK
- 假病毒中和效应 EC50 (luciferase, HEK293-ACE2 cells): 0.0369 µg/mL
